Source: patent publication US20240239863A1, “GIP RECEPTOR AGONIST AND USE THEREOF” (HANGZHOU ZHONGMEIHUADONG PHARMACEUTICAL CO., LTD., priority 2022, published 2024)
Non-standard residues stand in square brackets, D forms with d. Residues, ends and D or L forms follow the SMILES beside them. No end group written: not given here. Aib = CC(C)(N)C(=O)O

Legend:
hGLP-1R = hGLP-1R (Homo sapiens, UniProt P43220); test: Cell agonistic activity at GLP-1 receptor (Example 7); type: cell-based
[1] = target: T1, human GIP receptor (glucose-dependent insulinotropic peptide receptor, GIPR) (human, UniProt P48546 22-466); test: cell-based or functional assay
T1 sequence (looked up): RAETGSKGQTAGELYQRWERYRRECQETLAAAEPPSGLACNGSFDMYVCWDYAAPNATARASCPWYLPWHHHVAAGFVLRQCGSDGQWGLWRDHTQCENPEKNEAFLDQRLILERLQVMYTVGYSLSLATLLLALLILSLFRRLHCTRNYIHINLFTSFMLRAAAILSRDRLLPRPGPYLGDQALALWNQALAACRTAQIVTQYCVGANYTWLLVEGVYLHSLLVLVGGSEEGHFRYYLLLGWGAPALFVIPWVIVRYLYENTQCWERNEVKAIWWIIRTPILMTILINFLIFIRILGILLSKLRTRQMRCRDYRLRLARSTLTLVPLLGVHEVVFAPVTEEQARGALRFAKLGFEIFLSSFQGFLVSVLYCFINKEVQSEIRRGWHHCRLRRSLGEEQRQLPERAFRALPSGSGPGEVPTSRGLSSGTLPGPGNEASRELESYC

human GLP-1 receptor = human GLP-1 receptor (human, UniProt P43220 24-463); test: cell-based or functional assay

Chain of hGLP-1R (P43220 24-463): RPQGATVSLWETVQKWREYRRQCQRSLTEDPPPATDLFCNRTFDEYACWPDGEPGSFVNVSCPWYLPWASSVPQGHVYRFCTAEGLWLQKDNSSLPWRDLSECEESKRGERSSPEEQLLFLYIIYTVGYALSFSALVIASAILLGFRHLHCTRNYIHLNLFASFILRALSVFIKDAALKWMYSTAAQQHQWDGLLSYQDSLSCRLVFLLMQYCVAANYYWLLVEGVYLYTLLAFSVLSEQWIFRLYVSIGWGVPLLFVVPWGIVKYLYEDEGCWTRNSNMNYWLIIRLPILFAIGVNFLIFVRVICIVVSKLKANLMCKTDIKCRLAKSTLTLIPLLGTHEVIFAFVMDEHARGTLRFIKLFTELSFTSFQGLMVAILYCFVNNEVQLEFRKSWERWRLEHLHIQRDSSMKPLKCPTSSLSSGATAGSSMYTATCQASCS

## CC[C@H](C)[C@H](NC(=O)[C@H](CO)NC(=O)[C@H](Cc1ccc(O)cc1)NC(=O)[C@H](CC(=O)O)NC(=O)[C@H](CO)NC(=O)[C@@H](NC(=O)[C@H](Cc1ccccc1)NC(=O)[C@@H](NC(=O)CNC(=O)[C@H](CCC(=O)O)NC(=O)C(C)(C)NC(=O)[C@@H](N)Cc1ccc(O)cc1)[C@@H](C)O)[C@@H](C)CC)C(=O)N[C@@H](C)C(=O)N[C@@H](CC(C)C)C(=O)N[C@@H](CC(=O)O)C(=O)N[C@@H](CCCNC(=N)N)C(=O)N[C@H](C(=O)N[C@@H](Cc1c[nH]cn1)C(=O)N[C@@H](CCC(N)=O)C(=O)N[C@@H](CCC(=O)O)C(=O)N[C@@H](CC(=O)O)C(=O)N[C@@H](Cc1ccccc1)C(=O)N[C@H](C(=O)N[C@@H](CCCCN)C(=O)N[C@@H](Cc1c[nH]c2ccccc12)C(=O)N[C@@H](CC(C)C)C(=O)N[C@@H](CC(C)C)C(=O)N[C@@H](C)C(=O)N[C@@H](CCC(N)=O)C(=O)N[C@@H](CCCNC(=N)N)C(=O)NCC(=O)O)C(C)C)[C@@H](C)CC [Sequence 11] (H-Y[Aib]EGTFISDYSIALDRIHQEDFVKWLLAQRG-OH; N-terminus and C-terminus assumed)
hGLP-1R
  EC50: > 0.1 nM

## Y[Aib]EGTFISDYSIALDRIHQQDFVNWLLAQKG [Sequence 14 (Seq ID. 14)]
[1]
  EC50(pM), cell agonistic activity (cAMP, HTRF): 18.4 pM
Human GLP-1 receptor
  EC50(pM), cell agonistic activity: > 100 pM

## Y[Aib]EGTFISDYSIALDKLHQQDFVNWLLAQRG [Sequence 8 (Seq ID. 8)]
[1]
  EC50(pM), cell agonistic activity (cAMP, HTRF): 11.7 pM
Human GLP-1 receptor
  EC50(pM), cell agonistic activity: > 100 pM

## Y[Aib]EGTFISDYSIALDKIHQEDFVNWLLAQRG [Sequence 9 (Seq ID. 9)]
[1]
  EC50(pM), cell agonistic activity (cAMP, HTRF): 16.4 pM
Human GLP-1 receptor
  EC50(pM), cell agonistic activity: > 100 pM

## Y[Aib]EGTFISDYSIALDKIHQQDFVNWLLAQRG [Sequence 7 (Seq ID. 7)]
[1]
  EC50(pM), cell agonistic activity (cAMP, HTRF): 6.04 pM
Human GLP-1 receptor
  EC50(pM), cell agonistic activity: > 100 pM

## Y[Aib]EGTFISDYSIALDEIHQKDFVNWLLAQRG [Sequence 5 (Seq ID. 5)]
[1]
  EC50(pM), cell agonistic activity (cAMP, HTRF): 6.12 pM
Human GLP-1 receptor
  EC50(pM), cell agonistic activity: > 100 pM

## Y[Aib]EGTFISDYSIALDKIHQEDFVKWLLAQKG [Sequence 3 (Seq ID. 3)]
[1]
  EC50(pM), cell agonistic activity (cAMP, HTRF): 3.41 pM
Human GLP-1 receptor
  EC50(pM), cell agonistic activity: > 100 pM

## Y[Aib]EGTFISDYSIALDRLHQEDFVKWLLAQRG [Sequence 15 (Seq ID. 15)]
[1]
  EC50(pM), cell agonistic activity (cAMP, HTRF): 27.2 pM
Human GLP-1 receptor
  EC50(pM), cell agonistic activity: > 100 pM

## Y[Aib]EGTFISDYSIALDEIHQKDFVKWLLAQKG [Sequence 4 (Seq ID. 4)]
[1]
  EC50(pM), cell agonistic activity (cAMP, HTRF): 2.87 pM
Human GLP-1 receptor
  EC50(pM), cell agonistic activity: > 100 pM

## Y[Aib]EGTFISDYSIALDRIHQQDFVKWLLAQRG [Sequence 13 (Seq ID. 13)]
[1]
  EC50(pM), cell agonistic activity (cAMP, HTRF): 36.2 pM
Human GLP-1 receptor
  EC50(pM), cell agonistic activity: > 100 pM

## Y[Aib]EGTFISDYSIALDKLHQEDFVNWLLAQRG [Sequence 10 (Seq ID. 10)]
[1]
  EC50(pM), cell agonistic activity (cAMP, HTRF): 1.63 pM
Human GLP-1 receptor
  EC50(pM), cell agonistic activity: > 100 pM

## Y[Aib]EGTFISDYSIALDRIHQEDFVNWLLAQKG [Sequence 12 (Seq ID. 12)]
[1]
  EC50(pM), cell agonistic activity (cAMP, HTRF): 0.81 pM
Human GLP-1 receptor
  EC50(pM), cell agonistic activity: > 100 pM

## Y[Aib]EGTFISDYSIALDRIHQEDFVKWLLAQRG [Sequence 11 (Seq ID. 11)]
[1]
  EC50(pM), cell agonistic activity (cAMP, HTRF): 3.44 pM
Human GLP-1 receptor
  EC50(pM), cell agonistic activity: > 100 pM

## Y[Aib]EGTFISDYSIALDELHQKDFVNWLLAQRG [Sequence 6 (Seq ID. 6)]
[1]
  EC50(pM), cell agonistic activity (cAMP, HTRF): 7.93 pM
Human GLP-1 receptor
  EC50(pM), cell agonistic activity: > 100 pM
